In US20230227520A1 (MAX PLANCK GESELLSCHAFT ZUR F RDERUNG DER WISSENSCHAFTEN E V, published 2023):
Positions count from the first letter of the chain named. Like-named read-outs stand apart in the source and are kept apart here.

Columns and labels:
[1] = target: T1, G-CSFR on NFS-60 cells (murine myeloblastic cell line) (mouse, UniProt P40223 26-837); test: cell-based or functional assay
T1 sequence (looked up): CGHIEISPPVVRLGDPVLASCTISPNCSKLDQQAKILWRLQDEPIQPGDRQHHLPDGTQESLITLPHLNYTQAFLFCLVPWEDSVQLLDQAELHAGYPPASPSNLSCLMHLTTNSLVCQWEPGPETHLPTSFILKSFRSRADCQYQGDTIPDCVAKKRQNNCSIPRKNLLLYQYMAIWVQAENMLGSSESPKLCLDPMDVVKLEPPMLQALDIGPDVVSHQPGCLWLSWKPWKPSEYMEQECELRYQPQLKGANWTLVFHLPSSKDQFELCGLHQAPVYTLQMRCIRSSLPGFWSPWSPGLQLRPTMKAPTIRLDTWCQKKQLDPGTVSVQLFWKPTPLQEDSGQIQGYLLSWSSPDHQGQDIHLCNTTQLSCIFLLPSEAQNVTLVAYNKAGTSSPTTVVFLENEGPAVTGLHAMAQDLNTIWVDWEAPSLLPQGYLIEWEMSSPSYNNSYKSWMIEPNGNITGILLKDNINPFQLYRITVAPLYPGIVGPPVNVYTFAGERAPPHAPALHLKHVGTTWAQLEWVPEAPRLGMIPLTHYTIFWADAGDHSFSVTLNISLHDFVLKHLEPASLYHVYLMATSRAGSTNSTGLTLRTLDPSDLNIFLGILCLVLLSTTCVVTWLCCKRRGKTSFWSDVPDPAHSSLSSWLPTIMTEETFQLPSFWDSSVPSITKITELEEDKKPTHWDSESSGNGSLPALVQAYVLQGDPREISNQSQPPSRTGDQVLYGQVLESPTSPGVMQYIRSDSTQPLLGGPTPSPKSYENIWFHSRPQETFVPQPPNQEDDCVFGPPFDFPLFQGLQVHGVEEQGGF

[2] = target: T1, G-CSFR on NFS-60 cells (murine …); test: cell-based or functional assay; remark: listed apart in the source
[3] = target: T2, G-CSF Receptor (G-CSFR) (R&D systems 381-GR-050/CF), recombinant human (human, UniProt Q99062 25-627, limits assumed); test: SPR, Biacore X100 single-cycle kinetics, G-CSFR amine-coupled on CM5, 1:1 binding model
T2 construct: Bought protein, amine-coupled to a CM5 chip; also called rhG-CSFR; human G-CSF receptor
T2 sequence (looked up): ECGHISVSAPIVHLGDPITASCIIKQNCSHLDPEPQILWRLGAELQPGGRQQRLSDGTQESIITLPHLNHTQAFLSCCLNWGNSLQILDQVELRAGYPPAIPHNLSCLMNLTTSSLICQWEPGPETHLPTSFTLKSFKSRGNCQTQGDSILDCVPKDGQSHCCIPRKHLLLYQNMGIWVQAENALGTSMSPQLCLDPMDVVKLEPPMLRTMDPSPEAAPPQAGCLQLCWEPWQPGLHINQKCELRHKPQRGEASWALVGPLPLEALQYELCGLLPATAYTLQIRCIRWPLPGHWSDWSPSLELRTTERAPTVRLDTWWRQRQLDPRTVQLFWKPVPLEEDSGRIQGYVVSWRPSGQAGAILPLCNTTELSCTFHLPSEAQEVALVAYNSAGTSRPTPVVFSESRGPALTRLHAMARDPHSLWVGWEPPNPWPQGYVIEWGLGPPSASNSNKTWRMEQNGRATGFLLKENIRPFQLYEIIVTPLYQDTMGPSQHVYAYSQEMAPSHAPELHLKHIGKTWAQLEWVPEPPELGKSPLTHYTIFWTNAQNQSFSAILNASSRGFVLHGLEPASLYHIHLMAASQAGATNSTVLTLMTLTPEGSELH
Experimental: To test whether the grafted epitope residues mediate binding of the designs to the G-CSF receptor, the inventors also performed SPR measurements for the Moevan and diSohair2 initial design templates (Moevan_control and diSohair_control, respectively), and no binding was observed (FIG. 20C,F).
Single-cycle kinetics experiments were performed on a Biacore X100 system (GE Healthcare Life Sciences). G-CSF Receptor (G-CSFR) (R&D systems 381-GR-050/CF) was diluted to 50 μg/ml in 10 mM acetate buffer pH 5.0 and immobilized on the surface of a CM5 sensor chip (GE Healthcare 29149604) using standard amine coupling chemistry. The designs and rhG-CSF (USP RS Filgrastim, Sigma-Aldrich 1270435) were diluted in running buffer (10 mM HEPES, 150 mM NaCl, 3.4 mM EDTA, 0.005% v/v Tween-20). Analyses were conducted at 25° C. at a flow rate of 30 μl/min. Five sequential 10-fold increasing concentrations of the sample solution (for the designs from 0.5 nM to 50 μM, and for rhG-CSF from 0.05 to 500 nM) were injected over the functionalized sensor chip surface for 180 s, followed by a 180 s dissociation with running buffer. At the end of each run, the sensor surface was regenerated with a 240 s injection of 10 mM glycine-HCl pH 2.0. Each experiment was performed two times for rhG-CSF, Boskar3, Boskar4, diSohair2, Moevan, and Moevan_t2. Association rate (ka), dissociation rate (kd), and equilibrium dissociation (Kd) constants were initially obtained by global fitting of the experimental reference-subtracted data to a 1:1 interaction model using the Biacore X100 evaluation software (v.2.0.1). To evaluate if a kinetics model that depends on double the analyte stoichiometry improves the goodness of fit to the data, the following rate integral was used: […]

[4] = target: T2, G-CSF Receptor (G-CSFR) (R&D systems …); test: SPR (Biacore), G-CSFR immobilised on the chip, Moevan 2 nM - 32 nM as analyte, five traces with binding model fit [panel D]
[5] = target: T2, G-CSF Receptor (G-CSFR) (R&D systems …); test: SPR (Biacore), G-CSFR immobilised on the chip, diSohair2 250 nM - 4000 nM as analyte, five traces with binding model fit [panel B]
[6] = target: T2, G-CSF Receptor (G-CSFR) (R&D systems …); test: SPR (Biacore), G-CSFR immobilised on the chip, Moevan_t2 2 nM - 32 nM as analyte, five traces with binding model fit [panel E]

B1: boskar4_st2 (designed binder)
chain: AALAAALAEIYKGLAEYQARLKSLEGISPELGPALDALRLDMADFATTMAQAMEEGLDSLPQSFLLKALEQIRKIQADAAALREKLAATYKGNDRAAAAVEIAAQLEAFLEKAYQILRHLAAAGGGGSSAALAAALAEIYKGLAEYQARLKSLEGISPELGPALDALRLDMADFATTMAQAMEEGLDSLPQSFLLKALEQIRKIQADAAALREKLAATYKGNDRAAAAVEIAAQLEAFLEKAYQILRHLAAA
Q: How did the “NFS-60 EC50 (ng/mL), proliferation of NFS-60 cells” value (from here on “NFS-60 EC50 (ng/mL), proliferation”) [1] turn out when B1 was run?
A: 0.202 ng/mL

B2: Moevan (designed binder)
chain: MEAAAAARDESAYLKLQEQMRKIDADAAALSETRTIEELDTFKLDVADFVTTVVQLAEELEHRFGRNRRGRTEIYKIVKEVDRKLLDLTDAVLAKEKKGEDILNMVAEIKALLINIYK
notes: also called Movean
Q: Which results are given for B2?
A: NFS-60 EC50 (ng/mL), proliferation of NFS-60 cells [2]: 356 ng/mL; Kd [3]: 21 nM; koff [3]: 0.0059 s⁻¹; kon [3]: 290000 M⁻¹ s⁻¹; Kd [4]: 21.7 nM; koff [4]: 0.00599 s⁻¹; kon [4]: 275000 M⁻¹ s⁻¹

B3: boskar4_15rl (designed binder)
chain: AALAAALAEIYKGLAEYQARLKSLEGISPELGPALDALRLDMADFATTMAQAMEGGGGSGGGGSGGGGSQSFLLKALEQIRKIQADAAALREKLAATYKGNDRAAAAVEIAAQLEAFLEKAYQILRHLAAA
Q: Which “NFS-60 EC50 (ng/mL), proliferation” value [1] does the source give for B3 here?
A: 48.5 ng/mL

B4: sohair2_15r (designed binder)
chain: MTSDYIIEQIQRKQEEARLKVEEQERKLEAVKEASKRGVSSDQLLNLILDLADIITTLIQIIEESNEAIKELIKNQGGGGSGGGGSGGGGSDYIIEQIQRKQEEARLKVEEQERKLEAVKEASKRGVSSDQLLNLILDLADIITTLIQIIEESNEAIKELIKNQ
Q: Which “NFS-60 EC50 (ng/mL), proliferation” value [1] does the source give for B4 here?
A: 228 ng/mL

B5: Sohair (designed binder)
chain: MTSDYIIEQIQRKQEEARLKVEEMERKLEAVKEASKRGVSSDQLLNLILDLADIITTLIQIIEESNEAIKELIKNQKGPTSDYIIEQIQRDQEEARKKVEEAEERLERVKEASKRGVSSDQLLDLIRELAEIIEELIRIIRRSNEAIKELIKNQ
Q: B5 was tested. Which “NFS-60 EC50 (ng/mL), proliferation” value [2] did it give?
A: 5050 ng/mL

B6: boskar4_t2 (designed binder)
chain: AALAAALAEIYKGLAEYQARLKSLEGISPELGPALDALRLDMADFATTMAQAMEEGLDSLPQSFLLKALEQIRKIQADAAALREKLAATYKGNDRAAAAVEIAAQLEAFLEKAYQILRHLAAAGGGGSSGGGGSSGGGGSSGGGGSSAALAAALAEIYKGLAEYQARLKSLEGISPELGPALDALRLDMADFATTMAQAMEEGLDSLPQSFLLKALEQIRKIQADAAALREKLAATYKGNDRAAAAVEIAAQLEAFLEKAYQILRHLAAA
Q: With B6 as the binder, how does the “NFS-60 EC50 (ng/mL), proliferation” value [1] read?
A: 4.2 ng/mL

B7: Disohair_1 (designed binder)
chain: MTSDYIIEQIQRKQEEARLKVEEMERKLEEVKEASKRGVSSDQLLNLILDLADIITTLIQIIEESNEAIKELIKNQ
Q: B7 was tested. Which “NFS-60 EC50 (ng/mL), proliferation” value [2] did it give?
A: 2380 ng/mL

B8: Disohair_2 (designed binder)
chain: B7 chain with M24Q, E30A
notes: Expressed with an N-terminal hexa-His-tag and thrombin site
Q: What does the source list for B8?
A: NFS-60 EC50 (ng/mL), proliferation of NFS-60 cells [2]: 396 ng/mL; Kd [3]: 4500 nM; koff [3]: 0.0095 s⁻¹; kon [3]: 2100 M⁻¹ s⁻¹; Kd [5]: 4550 nM; koff [5]: 0.00949 s⁻¹; kon [5]: 2080 M⁻¹ s⁻¹

B9: Boskar_1 (designed binder)
chain: AALAAELAEIYKGLAEYQARLQSLEGISPELGPALDALRLDVADFATTLAQAMEEKKTNLPQSFLLKALEQIRKIQADAAALREKLAATYTGTDRAAAAVEIAAQLEAFLEKAYEILRHLAAA
Q: For B9, which “NFS-60 EC50 (ng/mL), proliferation” value [2] is on record?
A: 2170 ng/mL

B10: moevan_st2 (designed binder)
chain: EAAAAARDESAYLKLQEQMRKIDADAAALSETRTIEELDTFKLDVADFVTTVVQLAEELEHRFGRNRRGRTEIYKIVKEVDRKLLDLTDAVLAKEKKGEDILNMVAEIKALLINIYKGGGGSSEAAAAARDESAYLKLQEQMRKIDADAAALSETRTIEELDTFKLDVADFVTTVVQLAEELEHRFGRNRRGRTEIYKIVKEVDRKLLDLTDAVLAKEKKGEDILNMVAEIKALLINIYK
Q: Which “NFS-60 EC50 (ng/mL), proliferation” value [1] does the source give for B10 here?
A: 8.89 ng/mL

B11: Boskar_2 (designed binder)
chain: AALAAELAEIMKGLQEYQARLKSLEGISPELGPALDALRLDMADFATTMAQMMEENPSDLPQSFLLKALEQIRKIQADAAALREKLAATYPNSQRAAAAVEIAAQLEAFLEKAYQILRHLAAA
Q: B11 was tested. Which “NFS-60 EC50 (ng/mL), proliferation” value [2] did it give?
A: 3220 ng/mL

B12: Moevan_t2 (designed binder)
chain: EAAAAARDESAYLKLQEQMRKIDADAAALSETRTIEELDTFKLDVADFVTTVVQLAEELEHRFGRNRRGRTEIYKIVKEVDRKLLDLTDAVLAKEKKGEDILNMVAEIKALLINIYKGGGGSSGGGGSSGGGGSSGGGGSSEAAAAARDESAYLKLQEQMRKIDADAAALSETRTIEELDTFKLDVADFVTTVVQLAEELEHRFGRNRRGRTEIYKIVKEVDRKLLDLTDAVLAKEKKGEDILNMVAEIKALLINIYK
notes: Tandem fusion of two Moevan copies joined by a 24 amino acid GS linker
Q: What does the source list for B12?
A: NFS-60 EC50 (ng/mL), proliferation of NFS-60 cells [1]: 47.1 ng/mL; Kd [3]: 1.1 nM; koff [3]: 0.0003 s⁻¹; kon [3]: 310000 M⁻¹ s⁻¹; Kd [6]: 1.2 nM; koff [6]: 0.00036 s⁻¹; kon [6]: 300000 M⁻¹ s⁻¹

B13: bika1 (designed binder)
chain: SKEVLEQSLFLKLDEQVRKLLADIHAIKIDRITGNMDKQKLDTAYLDVADIETTLYQLIEVSH
Q: How did the “NFS-60 EC50 (ng/mL), proliferation” value [1] turn out when B13 was run?
A: 63 ng/mL

B14: bika2 (designed binder)
chain: B13 chain with A44L
Q: B14 was tested. Which “NFS-60 EC50 (ng/mL), proliferation” value [1] did it give?
A: 98 ng/mL
